In paper PMC2627783 (Biochemistry, 2008):

Target: T1, HscA (UniProt P0A6Z1 1-616)
T1 sequence (looked up): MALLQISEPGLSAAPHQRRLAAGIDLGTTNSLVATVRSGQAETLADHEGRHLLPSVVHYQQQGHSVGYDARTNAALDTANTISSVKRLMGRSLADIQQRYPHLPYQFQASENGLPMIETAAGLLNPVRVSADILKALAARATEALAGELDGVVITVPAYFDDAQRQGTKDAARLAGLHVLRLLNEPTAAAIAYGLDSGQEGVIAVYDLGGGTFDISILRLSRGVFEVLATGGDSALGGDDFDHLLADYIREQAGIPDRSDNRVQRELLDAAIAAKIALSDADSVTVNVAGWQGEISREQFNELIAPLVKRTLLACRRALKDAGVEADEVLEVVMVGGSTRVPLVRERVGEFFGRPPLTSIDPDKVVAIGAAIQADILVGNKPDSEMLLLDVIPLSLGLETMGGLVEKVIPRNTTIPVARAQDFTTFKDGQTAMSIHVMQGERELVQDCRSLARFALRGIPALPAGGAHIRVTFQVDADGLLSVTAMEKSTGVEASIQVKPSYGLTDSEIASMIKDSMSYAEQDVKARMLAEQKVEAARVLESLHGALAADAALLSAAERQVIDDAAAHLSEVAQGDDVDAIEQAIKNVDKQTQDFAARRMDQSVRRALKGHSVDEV
Experiment: cell-based or functional assay

B1: HscB (wild type) (natural protein, E. coli, UniProt P0A6L9 1-171, looked up)
chain: MDYFTLFGLPARYQLDTQALSLRFQDLQRQYHPDKFASGSQAEQLAAVQQSATINQAWQTLRHPLMRAEYLLSLHGFDLASEQHTVRDTAFLMEQLELREELDEIEQAKDEARLESFIKRVKKMFDTRHQLMVEQLDNETWDAAADTVRKLRFLDKLRSSAEQLEEKLLDF
For B1, the “HscA ATPase activity, 23 °C, in the absence of IscU: maximal stimulation” value was 4.4 fold.
